In patent US12312397B2, “Anti-O2 antibodies and uses thereof” (priority 2016, dated 2025):

B1: KPN17: Class I anti-O2 antigen human mAb; VH SEQ ID NO: 71, VL SEQ ID NO: 72 (antibody, V domains shown)
VH: EVQLVESGGGLVQPGGSLRLSCAASGFTFSHFWMHWVRQAPGQGLVWVARIDGSVTNLRYAGSVEGRFTISRDNAKNTLYLQMNSLRDEDTAVYYCARDLVGIGTPAGYGMDVWGQGTTVTVSS
VL: DIQLTQSPSFLSASVGDRVTITCRASQGISTYLAWYQQKPGKAPKLLIYAASTLQSGVPSRFSGSGSGTEFTLTINSLQSEDFATYYCQQLTSHLYTFGQGTKLEIK
modifications: Description of Artificial Sequence: SyntheticKPN17 VH polypeptide; Description of Artificial Sequence: SyntheticKPN17 VL polypeptide
B2: KPL36: Class II anti-O2 antigen human mAb; VH SEQ ID NO: 189, VL SEQ ID NO: 192 (antibody, V domains shown)
VH: EVQLVESGGGVVQSGGSLRLSCETSGFTFISSWMSWVRQAPGTGLEWVATINPDGTETPYADSLKGRFTISRDNTKKSLYLQIHSLRADDTAVYFCARNKAYNAHDFWGQGTLVMVSS
VL: QSALTQPPSASGSPGQSVTISCTGTSSDVGGNNFVSWYQQYPGKAPKLIIYEVNKRPSGVPDRFSGSKSGNTASLTVSGLQAEDEADYYCGAFGGSKMFGGGTKLTVL
modifications: Description of Artificial Sequence: SyntheticKPL36 VH polypeptide; Description of Artificial Sequence: SyntheticKPL36 VL polypeptide
B3: KPS44: Class III anti-O2 antigen human mAb; VH SEQ ID NO: 116, VL SEQ ID NO: 117 (antibody, V domains shown)
VH: EVHLVESGGGLVKPGGSLRLSCAASGFTFKNAWMSWIRQAPGKGLEWVGRVKSEVDGGTIDYGVPVRGRFTISRDDSQGTLSLEMNSLKDDDTGVYYCRAFWSGFPTGYWGQGALVSVSS
VL: QSVLTQPPSLSAAPGQTITIACSGTSSNIGSDSVSWFQQFPGTAPRVLIYENNKRPSGISDRFSGSKSGTSVTLGITGLQTGDEADYYCATWDSSLSAYVFGSGTKVTVL
modifications: Description of Artificial Sequence: SyntheticKPS44/KPS44-G1 VH polypeptide; Description of Artificial Sequence: SyntheticKPS44 VL polypeptide
B4: KPN44: anti-O2 antigen human mAb; VH SEQ ID NO: 62, VL SEQ ID NO: 63 (antibody, V domains shown)
VH: QVQLQESGPGLVKPSETLSLTCTVSGGSTSSYYWNWIRQAPGKPLQWIANIHHGGTTYYNPSLRSRVTMSLDTSNNQFSLKLTSVTAADTAVYFCARESDDGYRWNYFDYWGQGVLVTVSS
VL: EIVLTQSPASLSLSPGDRATLSCRASQTITNYLAWYQHKPGQAPRLLIFDMSKRATGIPARFSGSGSGTDFTLTISSLEPEDFAVYYCQHRSNWPLFTFGPGTNVDIK
modifications: Description of Artificial Sequence: SyntheticKPN44 VH polypeptide; Description of Artificial Sequence: SyntheticKPN44 VL polypeptide

What was measured:
O1 LPS = assay: ELISA binding to O1 LPS; set-up: species or system Klebsiella pneumoniae; settings: secondary screening
Experimental: (§1) The coated plates were incubated with cell culture supernatants from polyclonally stimulated lymphocytes (AMVBRA) or from monoclonal immortalized B cells (donor interrogations) containing fully human antibodies or with diluted plasma samples (PBMC donor selections) for 1 hour at room temperature. The plates were then washed with PBS containing 0.1% Tween-20 (PBS-T). Secondary antibody was added; either Alkaline Phosphatase-conjugated Goat Anti-Human IgG-AP (Southern Biotech, 2040-04, 1:1000 in PBS-B) or Peroxidase AffiniPure F(ab′)2 Fragment Goat Anti-Human IgG, Fc Fragment Specific (Jackson ImmunoResearch #309 036 098, 1:5000 in PBS-B) were used. Secondary antibodies were typically incubated for 1 h. Plates were washed three times with PBS-T, and P-NitroPhenyl Phosphate (pNPP, Sigma-Aldrich, cat #N2765-100TAB) or Sureblue (KPL, 53-00-03) substrates were added and incubated for 10 min or until the development of a colorimetric reaction. In the case of the HRP substrate Sureblue, the reaction was stopped by adding an equal volume of 0.2N HCl. The absorbance at 405 nm (pNPP) or 450 nm (Sureblue) was measured by a microplate reader (Biotek, Elx808).
(§2) The coated plates were incubated with serial dilutions of the monoclonal antibodies for 1 hour at room temperature. The plates were then washed with PBS containing 0.1% Tween-20 (PBS-T). Alkaline Phosphatase-conjugated Goat Anti-Human IgG (Southern Biotech, 2040-04, 1:1000 in PBS-B) was added. The secondary antibody reactions were incubated for 1 h. Plates were washed three times with PBS-T, and P-NitroPhenyl Phosphate (pNPP, Sigma-Aldrich, cat #N2765-100TAB) substrate was added and incubated for 30 min or until the development of a colorimetric reaction. The absorbance at 405 nm was measured by a microplate reader (Biotek, Elx808). The data was plotted with Graphpad Prism software. Representative mAbs from each class were tested for their binding to O1 LPS (FIG. 2A) and O2 LPS (FIG. 2B), and EC50 values were obtained (FIG. 2C). The majority of the anti-O2 LPS mAbs bound to both O1 and O2 LPS by ELISA. […] None of these LPS mAbs bound to the 03, 04, 05, 07, or 012 LPS serotypes (see e.g., FIG. 1A).

O2 LPS = assay: ELISA binding to O2 LPS; set-up: species or system Klebsiella pneumoniae; settings: secondary screening, ELISA
Experimental: as §1, §2

[1] = system: O1 LPS activation of NF-κB in RAW264.7-lux cells; assay: LPS neutralization assay (NF-κB luciferase, RAW264.7-lux), O1 LPS; format: cell-based, murine; settings: for neutralizing activity against O1 LPS (NF-κB activation): human IgG1 format
Experimental: (§3) Activation of TLR4 receptors by bacterial LPS leads to downstream activation of the NF-κB transcriptional regulator. A decrease in induction of NF-κB-responsive luciferase activity was used to quantify LPS neutralization activity by LPS mAbs. A murine RAW264.7 macrophage cell line was engineered to carry a firefly luciferase reporter gene under the control of an NF-κB-responsive promoter (RAW264.7-lux). Serially diluted antibody stocks were mixed with LPS in a 1:1 ratio and incubated at 4° C. for 1 hr. Antibody/LPS mixtures were then diluted 1:10 into assay plates containing pre-seeded RAW264.7-lux cells (4e5 cells/well), which were then placed at 37° C. with 5% CO2 for 2.5 hours. Following incubations, Steady Glo solution (Promega) was added to each well and incubated for another 20 min protected from light. The relative light units (RLUs) were measured using a multi-mode microplate reader (Synergy 2, Biotek or envision multilabel plate reader, Perkin Elmer). The percentage of inhibition was determined by comparing RLU derived from assays with no antibodies to RLU derived from assays with anti-K. pneumoniae mAbs and assays performed with a negative control mAb. […] All mAbs were tested in human IgG1 format.

[2] = system: O2 LPS activation of NF-κB in RAW264.7-lux cells; assay: LPS neutralization assay (NF-κB luciferase, RAW264.7-lux), O2 LPS; format: cell-based, murine; set-up: key to LPS Neut O2: +++: Strongly positive activity; +: Positive activity; +/−: Somewhat positive depending upon the test conditions; settings: for LPS Neut O2: Table 7 summary; for neutralizing activity against O2 LPS (NF-κB activation): human IgG1 format; for neutralization of LPS-O2: secondary screening
Experimental: as §3

[3] = system: K. pneumoniae 8570ΔcpsBLux (O2); assay: Opsonophagocytic killing (OPK) assay, O2 capsule mutant; format: cell-based, Klebsiella pneumoniae; set-up: key to D Capsule OPK O2: +++: Strongly positive activity; +: Positive activity; +/−: Somewhat positive depending upon the test conditions; settings: for D Capsule OPK O2: capsule mutant strain 8570ΔcpsB lux (O2); for OPK activity against O2 capsule mutant: secondary screening
Experimental: (§4) OPK activity of anti-O2 LPS mAbs was tested against O1 and O2 strains. Briefly, log phase cultures of luminescent K. pneumoniae strains 8570ΔcpsBLux (O2) and 43816ΔcpsBLux (O1) were diluted to ˜2×10^6 cells/ml. K. pneumoniae cells, 5e5/well dimethylformamide (DMF) differentiated HL-60 cells, cleared baby rabbit serum (1:10 Cedarlane), and a series dilution of antibodies (2 ng-2.5 μg/mL) were mixed in 96-well plates and incubated at 37° C. for two hours with shaking (250 rpm). The relative light units (RLUs) were then measured using a multi-mode microplate reader (Synergy 2, Biotek or envision multilabel plate reader, Perkin Elmer). The percentage of killing was determined by comparing RLU derived from assays with no antibodies to RLU derived from assays with anti-K. pneumoniae mAbs and assays performed with a negative control mAb. Positive killing was determined where the percentage of killing is above 40%.

[4] = system: K. pneumoniae 43816ΔcpsBLux (O1); assay: Opsonophagocytic killing (OPK) assay, O1 capsule mutant; format: cell-based, Klebsiella pneumoniae; set-up: key to D Capsule OPK O1: +++: Strongly positive activity; +: Positive activity; +/−: Somewhat positive depending upon the test conditions; settings: capsule mutant strain 43816ΔcpsB lux (O1)
Experimental: as §4

K. pneumoniae O2 = assay: Mouse protection models (O2), Table 7 summary; format: in vivo, Klebsiella pneumoniae; set-up: key: +++: Strongly positive activity; +: Positive activity; +/−: Somewhat positive depending upon the test conditions; settings: mouse pneumonia models
Experimental: As described in more detail in below, anti-O2 LPS mAbs were tested for: 1) binding to O1 and O2 LPS (see Example 5); 2) LPS neutralization (LPS-Neut) against O1 and O2 LPS (see Example 7); 3) OPK against capsule mutant strain 43816ΔcpsB lux (O1) and 8570ΔcpsB lux (O2) (see Example 8); and 4) protective activity in pneumonia models (see Example 9). O2 LPS mAbs were subsequently divided into three classes based on their in vitro activities. Class I mAbs were characterized as Binding (O1+O2+)/OPK (O1−O2+); Class 2 mAbs were characterized as Binding (O1+O2+)/OPK (O1+O2+); and Class III mAbs were characterized as Binding (O1±O2+)/OPK (O1−O2+).
C57/BL6 mice were obtained from Jackson Laboratories and maintained in a special pathogen-free facility. All animal experiments were conducted in accordance with Institutional Animal Care and Use Committee (IACUC) protocol and guidance. K. pneumoniae strains were grown on agar plates overnight and diluted in saline at proper concentration. The inoculum titer was determined by plating a serial dilution of bacteria onto agar plates prior to and post challenge. In acute pneumonia models, C57/BL6 mice were inoculated with 1e4 to 2e8 colony-forming units (CFU) of K. pneumoniae clinical isolates in 50 μl saline intranasally. Anti-K pneumoniae monoclonal antibodies (mAbs) and human IgG1 control antibodies were given 1-24 hour post bacterial challenge (therapeutic dosing). Mouse survival was monitored daily until up to day 8. Survival data of representative experiments were plotted in Graphpad Prism software.
Mice were challenged with 2e8 CFU of Klebsiella pneumoniae Carbanpenemase (KPC) strain Kp961842_O2 or with 3e8 CFU of KPC strain Kp977778_O2, followed by the administration of anti-O2 mAbs. When administered at a concentration of 2 mg/kg 1 hour post bacterial infection, Class III anti-O2 LPS mAbs KPN42, KPN179-IgG1, and KPS44v2017 protected mice from lethal bacterial challenge with the multi-drug resistant KPC strains Kp961842_O2 (FIG. 6, left panel, and FIG. 10) and Kp977778_O2 (FIG. 6B, right panel).

Molecule | binding to LPS-O1 (O1 LPS) | binding to LPS-O2 (O2 LPS) | neutralizing activity against O1 LPS (NF-κB activation) [1] | LPS Neut O2 [2] | neutralizing activity against O2 LPS (NF-κB activation) [2] | neutralization of LPS-O2 [2] | D Capsule OPK O2 [3] | OPK activity against O2 capsule mutant [3] | D Capsule OPK O1 [4] | Mouse protection models (O2) (K. pneumoniae O2) | neutralization of LPS-O1 ([1]; secondary screening)
B1 | bind | bind | no activity | +/− | moderate neutralizing activity | neutralize | + | showed OPK activity | – | – | –
B2 | confirmed to bind | confirmed to bind | no activity | + | moderate neutralizing activity | neutralize | + | – | + | – | –
B3 | – | – | no activity | +/− | moderate neutralizing activity | – | +++ | strong OPK activity | – | +++ | –
B4 | bind | bind | blocked | – | blocked | neutralize | – | showed OPK activity | – | – | neutralize
